Numbering of substitutions follows the chain as printed. In names and notes the source's numbering stands.
Assays:
[1] = target: T1, CD3 expressed on cell-surface of primary human T cells (human, UniProt P07766 23-207; P04234 22-171); assay: flow cytometry on human PBMCs, CD8+ cells, donor 4574
T1 construct: also called cell-surface CD3; human CD3
Experimental: (§1) Briefly, peripheral blood mononuclear cells (PBMCs) were incubated with different concentrations of HIV×CD3 bispecific molecules for 1 hour at RT. […] Cells were then washed, fixed/permeabilized, and analyzed using BD LSRFortessa according to the manufacturer's protocol. The percentage of α-huIgG-APC-positive CD4+ and CD8+ T cells and the mean fluorescence intensity of the α-huIgG-APC of CD4+ and CD8+ cells were collected, and data analyzed using GraphPad Prism.
(§2) Binding experiments were performed using PBMCs from two healthy human donors.

[2] = target: T1, CD3 expressed on cell-surface of …; assay: flow cytometry on human PBMCs, CD8+ cells, donor 3761
Experimental: as §1, §2

[3] = target: T1, CD3 expressed on cell-surface of …; assay: flow cytometry on human PBMCs, CD4+ cells, donor 4574
Experimental: as §1, §2

[4] = target: CD3 on rhesus monkey T cells in PBMCs (rhesus monkey); assay: flow cytometry on PBMCs, % anti-huIgG+ CD4+ cells, donor rh 3563
Sequence of CD3 on rhesus monkey T cells in PBMCs (rhesus monkey) (P16003 26-458): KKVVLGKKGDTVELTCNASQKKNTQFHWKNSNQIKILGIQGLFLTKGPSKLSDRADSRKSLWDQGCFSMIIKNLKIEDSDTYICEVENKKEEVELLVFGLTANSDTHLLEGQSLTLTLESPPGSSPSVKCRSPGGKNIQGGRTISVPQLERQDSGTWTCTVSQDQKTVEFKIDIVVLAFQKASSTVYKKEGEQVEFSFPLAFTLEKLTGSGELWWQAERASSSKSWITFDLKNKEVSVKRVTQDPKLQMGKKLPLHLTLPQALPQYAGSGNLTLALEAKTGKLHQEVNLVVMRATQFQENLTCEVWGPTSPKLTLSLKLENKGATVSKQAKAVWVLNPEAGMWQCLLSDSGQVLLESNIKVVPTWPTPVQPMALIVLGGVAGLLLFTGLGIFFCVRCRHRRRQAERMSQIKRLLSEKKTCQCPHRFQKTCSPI

[5] = target: T1, CD3 expressed on cell-surface of …; assay: flow cytometry on PBMCs, % anti-huIgG+ CD4+ cells, donor hu 340
Experimental: (§3) Briefly, PBMCs from healthy human donors and healthy rhesus or cynomolgus monkey donors were incubated with different concentrations of HIV×CD3 bispecific molecules for 1 hour at RT. […] Cells were then washed, fixed/permeabilized, and analyzed on BD LSRFortessa. The percentage of α-huIgG-APC-positive CD4+ and CD8+ T cells and the mFI of the α-huIgG-APC of CD4+ and CD8+ cells were collected, and data analyzed using GraphPad Prism.

[6] = target: T1, CD3 expressed on cell-surface of …; assay: flow cytometry on human PBMCs, CD4+ cells, donor 3761
Experimental: as §1, §2

[7] = target: CD3 on rhesus monkey T cells in PBMCs (rhesus monkey); assay: flow cytometry on PBMCs, % anti-huIgG+ CD8+ cells, donor rh 3483
[8] = target: T1, CD3 expressed on cell-surface of …; assay: flow cytometry on PBMCs, % anti-huIgG+ CD4+ cells, donor hu 151
[9] = target: CD3 on rhesus monkey T cells in PBMCs (rhesus monkey); assay: flow cytometry on PBMCs, % anti-huIgG+ CD4+ cells, donor rh 3483
[10] = target: CD3 on rhesus monkey T cells in PBMCs (rhesus monkey); assay: flow cytometry on PBMCs, % anti-huIgG+ CD8+ cells, donor rh 3563
[11] = target: T1, CD3 expressed on cell-surface of …; assay: flow cytometry on PBMCs, % anti-huIgG+ CD8+ cells, donor hu 340
Experimental: as §3

[12] = target: T1, CD3 expressed on cell-surface of …; assay: flow cytometry on PBMCs, % anti-huIgG+ CD8+ cells, donor hu 151
Experimental: as §3

[13] = target: T1, CD3 expressed on cell-surface of …; assay: cell-based or functional assay
[14] = target: T1, CD3 expressed on cell-surface of …; assay: flow cytometry competition vs murine SP34-AF488 on human T cells, average
Experimental: (§4) Binding of humanized SP34 Fab variants to CD3 expressed on cell-surface of primary human T cells was evaluated in a flow cytometry-based competition assay.

[15] = target: T2, biotinylated CD3 epsilon: delta heterodimer protein (Amsbio AMS.CDD-H52WO) (Homo sapiens (Human), UniProt P07766 23-126; P04234 22-105); assay: BLI (Octet), corresponding huSP34 Fab variant
Experimental: (§5) The CD3 binding kinetics of the purified huSP34 Fabs were determined using OctetRed384 (Pall ForteBio, CA) biolayer interferometry (BLI). […] Streptavidin (SA) coated biosensors tips (Pall ForteBio, CA) were used to capture biotinylated CD3 epsilon: delta heterodimer and typical immobilization levels captured on the SA sensors were 1 nm which approximately translates to 300 ng/ml of captured protein. For kinetic measurements biosensors were first pre-wetted with assay buffer for 10 minutes to remove protective sucrose coating followed by the recommended regeneration conditions for standardization of the biosensor surface for the experiment. In order to load the biosensors with antigen, 300 ng/ml of biotinylated CD3 epsilon: delta heterodimer protein (Amsbio AMS.CDD-H52WO) was immobilized on the SA sensor for 900 seconds. The CD3 loaded biosensors were then blocked with 20 ug/ml biocytin (sigma) for 200 seconds and then dipped into assay buffer containing wells for 200 seconds to remove any non-specific protein or unbound CD3 heterodimer.
(§6) CD3 loaded and biocytin blocked biosensors were then transferred into fresh assay buffer for 200 seconds to collect a baseline read. Kinetic measurements for anti-CD3 Fab and bispecific antibody binding were performed by dipping the CD3-coated biosensors into wells containing multiple concentrations of Fab or Ab (0-300 nM) for 100 seconds followed by a 300 second dissociation time by transferring the biosensors into assay buffer containing wells. The CD3 loaded sensors were then regenerated for the next kinetic measurement. Biosensors were generated by removing bound Fabs or Ab from immobilized CD3 on SA biosensors. Regeneration conditions used consisted of 3 cycles of 5 seconds of dipping the biosensors in Regeneration Buffer (10 mM Glycine HCl pH 1.5) followed by Assay Buffer (10 mM sodium phosphate pH 7.4, 140 mM Sodium Chloride, 0.005% Tween20 with 0.2% BSA).

[16] = target: T1, CD3 expressed on cell-surface of …; assay: flow cytometry competition vs murine SP34-AF488 on human T cells, n = 2
Experimental: as §4

[17] = target: T2, biotinylated CD3 epsilon: delta …; assay: BLI (Octet), huSP34 variant in Fab format
Experimental: as §5, §6

[18] = target: T1, CD3 expressed on cell-surface of …; assay: flow cytometry competition vs murine SP34-AF488 on human T cells, n = 1
Experimental: as §4

[19] = target: T1, CD3 expressed on cell-surface of …; assay: flow cytometry competition vs murine SP34-AF488 on human T cells, average; remark: listed apart in the source
Experimental: as §4
(§7) A second round of huSP34 Fab variants were characterized using the same flow cytometry-based competition assay as described above.

[20] = target: T1, CD3 expressed on cell-surface of …; assay: flow cytometry competition vs murine SP34-AF488 on human T cells, n = 1; remark: listed apart in the source
Experimental: as §4, §7

[21] = target: T2, biotinylated CD3 epsilon: delta …; assay: BLI (Octet), corresponding huSP34 Fab variant; remark: listed apart in the source
Experimental: as §5
CD3 loaded and biocytin blocked biosensors were then transferred into fresh assay buffer for 200 seconds to collect a baseline read. […]

[22] = target: T1, CD3 expressed on cell-surface of …; assay: flow cytometry competition vs murine SP34-AF488 on human T cells, n = 2; remark: listed apart in the source
Experimental: as §4, §7

[23] = target: T3, MabSelect SuRe (engineered Protein A); assay: 500 ml Expi293 expression, MabSelect SuRe capture and cation exchange; purified homodimer yield relative to parent
T3 construct: also called MabSelect SuRe column
Experimental: 500 ml of Expi293 cells were transfected with 0.5 mg DNA encoding selected huSP34 scFv-Fc Protein A knockout variants according to manufacturer's protocol. Four days post transfection, the cell-free clarified supernatant was collected and loaded to a MabSelect™ SuRe™ (Cytiva Life Sciences) column. Afterwards the column was washed with a low salt buffer of 25 mM Tris HCl pH 7.5, 25 mM NaCl for 10 column volumes (CV), then high salt wash of 25 mM Tris HCl pH 7.5, 500 mM NaCl for 5CV to remove non-specific binding, and finally washed with a low salt wash of 25 mM Tris HCl pH 7.5, 25 mM NaCl for 10CV. To elute the antibody, an isocratic elution step of 100 mM sodium acetate pH 3.7 was performed. The eluted pool was neutralized to pH 6.0 with 1 M Tris HCl pH 9.0, and subjected to a cation ion purification, HiTrap SP HP (Cytiva Life Sciences) to further remove impurities. The cation captured protein was washed with 10 mM sodium phosphate pH 7.0 for 10CV, then eluted in 0-30% gradient of 10 mM sodium phosphate pH 7.0, 1M NaCl for 50CV to separate the desired two targeting arm antibody (heterodimer) from the one targeted arm antibody (homodimer). Followed with gradient elution from 30-100% of 10 mM sodium phosphate pH 7.0, 1 M NaCl for 10CV to remove aggregation or homodimer in higher isoelectric point (pI). All proteins were formulated into 20 mM histidine pH 5.8 by dialysis, added additive of sucrose/tween-80, sterile filtered, and stored at 4° C. Concentration of the formulated protein was measured by A280. Purity was assessed as percent monodispersed by analytical size-exclusion chromatography. Identity of the bispecific antibody was determined by Mass Spec (MS).

B1: hPGT121.66 AAS + W/huSP34.1.3 scFv AAS + SAV + RF (bispecific antibody, human IgG1, lambda, L234A L235A)
chain: not shown
heavy: QMQLQESGPGLVKPSETLSLTCSVSGASISDSYWSWIRRSPGKGLEWIGYVHKSGDTNYNPSLKSRVHLSLDTSKNQVSLSLTGVTAADSGKYYCARTLHGRRIYGIVAFNEWFTYFYMDVWGTGTQVTVSSASTKGPSVFPLAPSSKSTSGGTAALGCLVKDYFPEPVTVSWNSGALTSGVHTFPAVLQSSGLYSLSSVVTVPSSSLGTQTYICNVNHKPSNTKVDKKVEPKSCDKTHTCPPCPAPEAAGGPSVFLFPPKPKDTLMISRTPEVTCVVVDVSHEDPEVKFNWYVDGVEVHNAKTKPREEQYNSTYRVVSVLTVLHQDWLNGKEYKCKVSNKALPASIEKTISKAKGQPREPQVYTLPPSREEMTKNQVSLWCLVKGFYPSDIAVEWESNGQPENNYKTTPPVLDSDGSFFLYSKLTVDKSRWQQGNVFSCSVMHEALHNHYTQKSLSLSPGK
light: not shown
[1]
  EC50: 0.35 µg/mL
[2]
  EC50: 0.36 µg/mL
[3]
  EC50: 0.33 µg/mL
[4]
  EC50: 0.4 µg/mL
[5]
  EC50: 0.42 µg/mL
[6]
  EC50: 0.32 µg/mL
[7]
  EC50: 0.55 µg/mL
[8]
  EC50: 0.41 µg/mL
[9]
  EC50: 0.33 µg/mL
[10]
  EC50: 1.02 µg/mL
[11]
  EC50: 0.68 µg/mL
[12]
  EC50: 0.44 µg/mL
[13]
  killing EC50, primary HIV-infected CD4+ cells, PBMC effector cells, isolate 657: 1.61 µg/mL
  killing EC50, primary HIV-infected CD4+ cells, PBMC effector cells, isolate 7552: 0.107 µg/mL

B2: hPGT121.66 AAS + W/huSP34.3.6scFv AAS + SAV + RF (bispecific antibody, human IgG1, lambda, L234A L235A)
chain: EVQLVESGGGLVQPGGSLRLSCAASGFTFNTYAMNWVRQAPGKGLEWVGRIRSKYNNYATYYADSVKGRFTISRDDSKNSLYLQMNSLRTEDTAVYYCVRHGNFGHSYVSWFAYWGQGTLVTVSSGGGGSGGGGSGGGGSGGGGSQAVVTQPPSLTVSPGGTVTLTCGSSTGAVTTGHYANWVQQKPGQAPRGLIGGTSNRAPGVPARFSGSLSGGKAALTISGAQPEDEAEYYCALWYSARWVFGGGTKLTVLEPKSSDKTHTCPPCPAPEAAGGPSVFLFPPKPKDTLMISRTPEVTCVVVDVSHEDPEVKFNWYVDGVEVHNAKTKPREEQYNSTYRVVSVLTVLHQDWLNGKEYKCKVSNKALPASIEKTISKAKGQPREPQVYTLPPSREEMTKNQVSLSCAVKGFYPSDIAVEWESNGQPENNYKTTPPVLDSDGSFFLVSKLTVDKSRWQQGNVFSCSVMHEALHNRFTQKSLSLSPGK
heavy: B1 heavy
light: not shown
notes: also called 259
[1]
  EC50: 1.1 µg/mL
[2]
  EC50: 0.48 µg/mL
[3]
  EC50: 1.4 µg/mL
[6]
  EC50: 0.65 µg/mL
[13]
  killing EC50, primary HIV-infected CD4+ cells, PBMC effector cells, isolate 657: 2.37 µg/mL
  killing EC50, primary HIV-infected CD4+ cells, PBMC effector cells, isolate 7552: 0.123 µg/mL

B3: hPGT121.66 AAS + W/huSP34.3.4 scFv AAS + SAV + RF (bispecific antibody, human IgG1, lambda, L234A L235A)
chain: B2 chain with P152E, G177S, N200K, G204W, V205T, S214L, I222L, R242L
heavy: B1 heavy
light: not shown
notes: also called 258
[1]
  EC50: 4.8 µg/mL
[2]
  EC50: 1.3 µg/mL
[3]
  EC50: 5.7 µg/mL
[6]
  EC50: 5.1 µg/mL

B4: hPGT121.66 AAS + W/huSP34.13.10 scFv AAS + SAV + RF (bispecific antibody, human IgG1, lambda, L234A L235A)
chain: B2 chain with N30S, D64A, S80T, S199N, N200K, A241N
heavy: B1 heavy
light: not shown
[1]
  EC50: 0.062 µg/mL
[2]
  EC50: 0.095 µg/mL
[3]
  EC50: 0.037 µg/mL
[6]
  EC50: 0.045 µg/mL
[13]
  killing EC50, primary HIV-infected CD4+ cells, PBMC effector cells, isolate 657: 0.275 µg/mL
  killing EC50, primary HIV-infected CD4+ cells, PBMC effector cells, isolate 7552: 0.011 µg/mL

B5: huSP34.3.4 Fab-HF (Fab, V domains shown)
VH: EVQLVESGGGLVQPGGSLRLSCAASGFTFNTYAMNWVRQAPGKGLEWVGRIRSKYNNYATYYADSVKGRFTISRDDSKNSLYLQMNSLRTEDTAVYYCVRHGNFGHSYVSWFAYWGQGTLVTVSS
VL: QAVVTQEPSLTVSPGGTVTLTCGSSTGAVTTSHYANWVQQKPGQAPRGLIGGTSKRAPWTPARFSGSLLGGKAALTLSGAQPEDEAEYYCALWYSALWVFGGGTKLTVL
[14]
  IC50: 17.3 µg/mL
[15]
  Kd: 86 nM
[16]
  IC50: 17.3 µg/mL
[17]
  Kd: 86 nM
[18]
  IC50: > 20 µg/mL

B6: huSP34.13.8 Fab-HF (Fab, V domains shown)
VH: B5 VH with N30S, D64A, S80T
VL: B5 VL with S32G, S54N, W59G, T60V, L77I, A96N, L97R
[19]
  IC50: 0.25 µg/mL
[20]
  IC50: 0.36 µg/mL
[21]
  Kd: 2.49 nM
[22]
  IC50: 0.14 µg/mL

B7: huSP34.4.2 Fab-HF (Fab, V domains shown)
VH: B5 VH with N30S, D64A, Y114V
VL: B5 VL with H33N, K55N, A96N
[21]
  Kd: 45.3 nM
[16]
  IC50: > 20 µg/mL
[18]
  IC50: > 20 µg/mL

B8: huSP34.3.6 Fab-HF (Fab, V domains shown)
VH: B5 VH
VL: B5 VL with E7P, S32G, K55N, W59G, T60V, L69S, L77I, L97R
[14]
  IC50: 4.75 µg/mL
[15]
  Kd: 19 nM
[16]
  IC50: 1.03 µg/mL
[17]
  Kd: 19 nM
[18]
  IC50: 8.48 µg/mL

B9: huSP34.13.10 Fab-HF (Fab, V domains shown)
VH: B5 VH with N30S, D64A, S80T
VL: B5 VL with E7P, S32G, S54N, W59G, T60V, L69S, L77I, A96N, L97R
[15]
  Kd: 1.8 nM
[19]
  IC50: 0.25 µg/mL
[20]
  IC50: 0.35 µg/mL
[17]
  Kd: 1.8 nM
[22]
  IC50: 0.16 µg/mL

B10: huSP34.27.8 scFv AAS + SAV + R (Fc fusion)
chain: EVQLVESGGGLVQPGGSLSLSCAASGFTFSTYAMNWVRQAPGKGLEWVGRIRSKYNNYAEYYAASVKGRFTISRDDSKNTLYLQMNSLRTEDTAVYYCVRHGNFGHSYVSWFAYWGQGTLVTVSSGGGGSGGGGSGGGGSGGGGSQAVVTQEPSLTVSPGGTVTLTCGSSTGAVTTGHYANWVQQKPGQAPRGLIGGTNKRAPGVPARFSGSLLGGKAALTISGAQPEDEAEYYCALWYSNRWVFGGGTKLTVLEPKSSDKTHTCPPCPAPEAAGGPSVFLFPPKPKDTLMISRTPEVTCVVVDVSHEDPEVKFNWYVDGVEVHNAKTKPREEQYNSTYRVVSVLTVLHQDWLNGKEYKCKVSNKALPASIEKTISKAKGQPREPQVYTLPPSREEMTKNQVSLSCAVKGFYPSDIAVEWESNGQPENNYKTTPPVLDSDGSFFLVSKLTVDKSRWQQGNVFSCSVMHEALHNRYTQKSLSLSPGK
notes: also called R19S, T57E; R19S + T57E
[23]
  scFv-Fc Homodimer Yield Relative to WT (e.g. Protein A binding): 8%

B11: huSP34.28.8 scFv AAS + SAV + R (Fc fusion)
chain: B10 chain with E60T, G68S
notes: also called R19S, G65S; R19S + G65S
[23]
  scFv-Fc Homodimer Yield Relative to WT (e.g. Protein A binding): 1.5%

B12: huSP34.33.8 scFv AAS + SAV + R (Fc fusion)
chain: B10 chain with S19R, E60T, G68S, Q84E
notes: also called G65S, Q81E; G65S + Q81E
[23]
  scFv-Fc Homodimer Yield Relative to WT (e.g. Protein A binding): 0.7%

Source: patent publication US20230056252A1 (Gilead, published 2023)
